Measurements from patent US20250171562A1.
Each block holds one binder with its values, some of them ahead of it.

Biological target: mixture of three Der p 2 specific recombinant human IgE clones H10, H12, P4E (human) (UniProt P01854)
Assay: RBL-SX38 IgE displacement, FACS

Chain of mixture of three Der p 2 specific recombinant human IgE clones H10, H12, P4E (human) (P01854 other isoform, or with tags, fused parts or gaps): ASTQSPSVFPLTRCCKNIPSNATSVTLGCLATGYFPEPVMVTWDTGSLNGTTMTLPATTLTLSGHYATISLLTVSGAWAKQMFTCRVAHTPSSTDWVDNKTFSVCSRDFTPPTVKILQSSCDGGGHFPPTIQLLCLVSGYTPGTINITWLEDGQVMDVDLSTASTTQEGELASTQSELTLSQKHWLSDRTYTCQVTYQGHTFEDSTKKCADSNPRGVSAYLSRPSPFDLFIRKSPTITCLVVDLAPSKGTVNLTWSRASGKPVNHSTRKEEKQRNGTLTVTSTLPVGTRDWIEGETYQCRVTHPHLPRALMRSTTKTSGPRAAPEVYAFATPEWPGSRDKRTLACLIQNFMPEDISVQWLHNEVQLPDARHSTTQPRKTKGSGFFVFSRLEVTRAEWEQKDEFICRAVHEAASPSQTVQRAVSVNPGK

B1: NIgG4B1A2(G4S)1 (Fc fusion)
chain 1: QVQLQESGGGLVQTGGSLRLSCAVHGRTFSNTGMGWFRQAPGNERQFVAIISPSGTSTYYADSVKGRFTISRDPAKNTVYLQMNSLKMDDTAVYYCAASYGSNWSTLRHQRRNEYDAWGQGTQVAVSGGGGSGPPCPPCPAPEFLGGPSVFLFPPKPKDTLMISRTPEVTCVVVDVSQEDPEVQFNWYVDGVEVHNAKTKPREEQFNSTYRVVSVLTVLHQDWLNGKEYKCKVSNKGLPSSIEKTISKAKGQPREPQVYTLPPCQEEMTKNQVSLWCLVKGFYPSDIAVEWESNGQPENNYKTTPPVLDSDGSFFLYSRLTVDKSRWQEGNVFSCSVMHEALHNHYTQKSLSLSLGK
chain 2: EVQLLESGGGLVQPGGSLRLSCAASGFRFGNYDMAWVRQAPGKRYEWVSSIDTGGDITHYADSVKGRFTISRDNAKNTLYLQMNSLRPEDTAEYWCATDEEYALGPNEFDYYGQGTLVTVSGGGGSGPPCPPCPAPEFLGGPSVFLFPPKPKDTLMISRTPEVTCVVVDVSQEDPEVQFNWYVDGVEVHNAKTKPREEQFNSTYRVVSVLTVLHQDWLNGKEYKCKVSNKGLPSSIEKTISKAKGQPREPQVCTLPPSQEEMTKNQVSLSCAVKGFYPSDIAVEWESNGQPENNYKTTPPVLDSDGSFFLVSRLTVDKSRWQEGNVFSCSVMHEALHNHYTQKSLSLSLGK
EC50: 0.4 nM
Max effect/effect 1 µM: 100%

B2: NIgG4B1A2(G4S)2 (Fc fusion)
chain 1: QVQLQESGGGLVQTGGSLRLSCAVHGRTFSNTGMGWFRQAPGNERQFVAIISPSGTSTYYADSVKGRFTISRDPAKNTVYLQMNSLKMDDTAVYYCAASYGSNWSTLRHQRRNEYDAWGQGTQVAVSGGGGSGGGGSGPPCPPCPAPEFLGGPSVFLFPPKPKDTLMISRTPEVTCVVVDVSQEDPEVQFNWYVDGVEVHNAKTKPREEQFNSTYRVVSVLTVLHQDWLNGKEYKCKVSNKGLPSSIEKTISKAKGQPREPQVYTLPPCQEEMTKNQVSLWCLVKGFYPSDIAVEWESNGQPENNYKTTPPVLDSDGSFFLYSRLTVDKSRWQEGNVFSCSVMHEALHNHYTQKSLSLSLGK
chain 2: EVQLLESGGGLVQPGGSLRLSCAASGFRFGNYDMAWVRQAPGKRYEWVSSIDTGGDITHYADSVKGRFTISRDNAKNTLYLQMNSLRPEDTAEYWCATDEEYALGPNEFDYYGQGTLVTVSGGGGSGGGGSGPPCPPCPAPEFLGGPSVFLFPPKPKDTLMISRTPEVTCVVVDVSQEDPEVQFNWYVDGVEVHNAKTKPREEQFNSTYRVVSVLTVLHQDWLNGKEYKCKVSNKGLPSSIEKTISKAKGQPREPQVCTLPPSQEEMTKNQVSLSCAVKGFYPSDIAVEWESNGQPENNYKTTPPVLDSDGSFFLVSRLTVDKSRWQEGNVFSCSVMHEALHNHYTQKSLSLSLGK
EC50: 0.4 nM
Max effect/effect 1 µM: 100%

B5: CIgG4B1A2(G4S)2 (Fc fusion)
chain 1: GPPCPPCPAPEFLGGPSVFLFPPKPKDTLMISRTPEVTCVVVDVSQEDPEVQFNWYVDGVEVHNAKTKPREEQFNSTYRVVSVLTVLHQDWLNGKEYKCKVSNKGLPSSIEKTISKAKGQPREPQVYTLPPCQEEMTKNQVSLWCLVKGFYPSDIAVEWESNGQPENNYKTTPPVLDSDGSFFLYSRLTVDKSRWQEGNVFSCSVMHEALHNHYTQKSLSLSLGKGGGGSGGGGSQVQLQESGGGLVQTGGSLRLSCAVHGRTFSNTGMGWFRQAPGNERQFVAIISPSGTSTYYADSVKGRFTISRDPAKNTVYLQMNSLKMDDTAVYYCAASYGSNWSTLRHQRRNEYDAWGQGTQVAVS
chain 2: GPPCPPCPAPEFLGGPSVFLFPPKPKDTLMISRTPEVTCVVVDVSQEDPEVQFNWYVDGVEVHNAKTKPREEQFNSTYRVVSVLTVLHQDWLNGKEYKCKVSNKGLPSSIEKTISKAKGQPREPQVCTLPPSQEEMTKNQVSLSCAVKGFYPSDIAVEWESNGQPENNYKTTPPVLDSDGSFFLVSRLTVDKSRWQEGNVFSCSVMHEALHNHYTQKSLSLSLGKGGGGSGGGGSEVQLLESGGGLVQPGGSLRLSCAASGFRFGNYDMAWVRQAPGKRYEWVSSIDTGGDITHYADSVKGRFTISRDNAKNTLYLQMNSLRPEDTAEYWCATDEEYALGPNEFDYYGQGTLVTVS
EC50: 6.1 nM
Max effect/effect 1 µM: 100%

B6: CIgG4B1A2(G4S)1 (Fc fusion)
chain 1: GPPCPPCPAPEFLGGPSVFLFPPKPKDTLMISRTPEVTCVVVDVSQEDPEVQFNWYVDGVEVHNAKTKPREEQFNSTYRVVSVLTVLHQDWLNGKEYKCKVSNKGLPSSIEKTISKAKGQPREPQVYTLPPCQEEMTKNQVSLWCLVKGFYPSDIAVEWESNGQPENNYKTTPPVLDSDGSFFLYSRLTVDKSRWQEGNVFSCSVMHEALHNHYTQKSLSLSLGKGGGGSQVQLQESGGGLVQTGGSLRLSCAVHGRTFSNTGMGWFRQAPGNERQFVAIISPSGTSTYYADSVKGRFTISRDPAKNTVYLQMNSLKMDDTAVYYCAASYGSNWSTLRHQRRNEYDAWGQGTQVAVS
chain 2: GPPCPPCPAPEFLGGPSVFLFPPKPKDTLMISRTPEVTCVVVDVSQEDPEVQFNWYVDGVEVHNAKTKPREEQFNSTYRVVSVLTVLHQDWLNGKEYKCKVSNKGLPSSIEKTISKAKGQPREPQVCTLPPSQEEMTKNQVSLSCAVKGFYPSDIAVEWESNGQPENNYKTTPPVLDSDGSFFLVSRLTVDKSRWQEGNVFSCSVMHEALHNHYTQKSLSLSLGKGGGGSEVQLLESGGGLVQPGGSLRLSCAASGFRFGNYDMAWVRQAPGKRYEWVSSIDTGGDITHYADSVKGRFTISRDNAKNTLYLQMNSLRPEDTAEYWCATDEEYALGPNEFDYYGQGTLVTVS
EC50: 8.1 nM
Max effect/effect 1 µM: 100%

B7: CIgG4B1A2(RS) (Fc fusion)
chain 1: GPPCPPCPAPEFLGGPSVFLFPPKPKDTLMISRTPEVTCVVVDVSQEDPEVQFNWYVDGVEVHNAKTKPREEQFNSTYRVVSVLTVLHQDWLNGKEYKCKVSNKGLPSSIEKTISKAKGQPREPQVYTLPPCQEEMTKNQVSLWCLVKGFYPSDIAVEWESNGQPENNYKTTPPVLDSDGSFFLYSRLTVDKSRWQEGNVFSCSVMHEALHNHYTQKSLSLSLGKRSQVQLQESGGGLVQTGGSLRLSCAVHGRTFSNTGMGWFRQAPGNERQFVAIISPSGTSTYYADSVKGRFTISRDPAKNTVYLQMNSLKMDDTAVYYCAASYGSNWSTLRHQRRNEYDAWGQGTQVAVS
chain 2: GPPCPPCPAPEFLGGPSVFLFPPKPKDTLMISRTPEVTCVVVDVSQEDPEVQFNWYVDGVEVHNAKTKPREEQFNSTYRVVSVLTVLHQDWLNGKEYKCKVSNKGLPSSIEKTISKAKGQPREPQVCTLPPSQEEMTKNQVSLSCAVKGFYPSDIAVEWESNGQPENNYKTTPPVLDSDGSFFLVSRLTVDKSRWQEGNVFSCSVMHEALHNHYTQKSLSLSLGKRSEVQLLESGGGLVQPGGSLRLSCAASGFRFGNYDMAWVRQAPGKRYEWVSSIDTGGDITHYADSVKGRFTISRDNAKNTLYLQMNSLRPEDTAEYWCATDEEYALGPNEFDYYGQGTLVTVS
EC50: 11.9 nM
Max effect/effect 1 µM: 99%

Other lines, results leading:

EC50: 0.5 nM
Max effect/effect 1 µM: 100%
B3: NIgG4B1A2(G4S)3 (Fc fusion)
chain 1: QVQLQESGGGLVQTGGSLRLSCAVHGRTFSNTGMGWFRQAPGNERQFVAIISPSGTSTYYADSVKGRFTISRDPAKNTVYLQMNSLKMDDTAVYYCAASYGSNWSTLRHQRRNEYDAWGQGTQVAVSGGGGSGGGGSGGGGSGPPCPPCPAPEFLGGPSVFLFPPKPKDTLMISRTPEVTCVVVDVSQEDPEVQFNWYVDGVEVHNAKTKPREEQFNSTYRVVSVLTVLHQDWLNGKEYKCKVSNKGLPSSIEKTISKAKGQPREPQVYTLPPCQEEMTKNQVSLWCLVKGFYPSDIAVEWESNGQPENNYKTTPPVLDSDGSFFLYSRLTVDKSRWQEGNVFSCSVMHEALHNHYTQKSLSLSLGK
chain 2: EVQLLESGGGLVQPGGSLRLSCAASGFRFGNYDMAWVRQAPGKRYEWVSSIDTGGDITHYADSVKGRFTISRDNAKNTLYLQMNSLRPEDTAEYWCATDEEYALGPNEFDYYGQGTLVTVSGGGGSGGGGSGGGGSGPPCPPCPAPEFLGGPSVFLFPPKPKDTLMISRTPEVTCVVVDVSQEDPEVQFNWYVDGVEVHNAKTKPREEQFNSTYRVVSVLTVLHQDWLNGKEYKCKVSNKGLPSSIEKTISKAKGQPREPQVCTLPPSQEEMTKNQVSLSCAVKGFYPSDIAVEWESNGQPENNYKTTPPVLDSDGSFFLVSRLTVDKSRWQEGNVFSCSVMHEALHNHYTQKSLSLSLGK

EC50: 0.6 nM
Max effect/effect 1 µM: 99%
B4: NIgG4B1A2(RS) (Fc fusion)
chain 1: QVQLQESGGGLVQTGGSLRLSCAVHGRTFSNTGMGWFRQAPGNERQFVAIISPSGTSTYYADSVKGRFTISRDPAKNTVYLQMNSLKMDDTAVYYCAASYGSNWSTLRHQRRNEYDAWGQGTQVAVSRSGPPCPPCPAPEFLGGPSVFLFPPKPKDTLMISRTPEVTCVVVDVSQEDPEVQFNWYVDGVEVHNAKTKPREEQFNSTYRVVSVLTVLHQDWLNGKEYKCKVSNKGLPSSIEKTISKAKGQPREPQVYTLPPCQEEMTKNQVSLWCLVKGFYPSDIAVEWESNGQPENNYKTTPPVLDSDGSFFLYSRLTVDKSRWQEGNVFSCSVMHEALHNHYTQKSLSLSLGK
chain 2: EVQLLESGGGLVQPGGSLRLSCAASGFRFGNYDMAWVRQAPGKRYEWVSSIDTGGDITHYADSVKGRFTISRDNAKNTLYLQMNSLRPEDTAEYWCATDEEYALGPNEFDYYGQGTLVTVSRSGPPCPPCPAPEFLGGPSVFLFPPKPKDTLMISRTPEVTCVVVDVSQEDPEVQFNWYVDGVEVHNAKTKPREEQFNSTYRVVSVLTVLHQDWLNGKEYKCKVSNKGLPSSIEKTISKAKGQPREPQVCTLPPSQEEMTKNQVSLSCAVKGFYPSDIAVEWESNGQPENNYKTTPPVLDSDGSFFLVSRLTVDKSRWQEGNVFSCSVMHEALHNHYTQKSLSLSLGK

Max effect/effect 1 µM: 93%
B8: NIgG4B3A1(G4S)3 (Fc fusion)
chain 1: DVQLQESGGGLVQAGGSLRLSCAASGFIFRLAGMSWVRQAPGKGFEWVSGITMDGSTTNYADSVKGRFTISRDNSKNRLYLQMNSLKPEDTAVYYCARGAKGGYNDPRGQGTQVTVSGGGGSGGGGSGGGGSGPPCPPCPAPEFLGGPSVFLFPPKPKDTLMISRTPEVTCVVVDVSQEDPEVQFNWYVDGVEVHNAKTKPREEQFNSTYRVVSVLTVLHQDWLNGKEYKCKVSNKGLPSSIEKTISKAKGQPREPQVYTLPPCQEEMTKNQVSLWCLVKGFYPSDIAVEWESNGQPENNYKTTPPVLDSDGSFFLYSRLTVDKSRWQEGNVFSCSVMHEALHNHYTQKSLSLSLGK
chain 2: EVQLLESGGGLVQPGGSLRLSCAASGFTFGNYDMAWVRQAPGKRPEWVSSIDTGGDITHYADSVKGRFTISRDNAKNTLYLQMNSLRPEDTAVYWCATDEEYALGPNEFDYYGQGTLVTVSSGGGGSGGGGSGGGGSGPPCPPCPAPEFLGGPSVFLFPPKPKDTLMISRTPEVTCVVVDVSQEDPEVQFNWYVDGVEVHNAKTKPREEQFNSTYRVVSVLTVLHQDWLNGKEYKCKVSNKGLPSSIEKTISKAKGQPREPQVCTLPPSQEEMTKNQVSLSCAVKGFYPSDIAVEWESNGQPENNYKTTPPVLDSDGSFFLVSRLTVDKSRWQEGNVFSCSVMHEALHNHYTQKSLSLSLGK
